Reference: patent publication US20260109776A1 (Amgen, published 2026)
Like-named read-outs stand apart in the source and are kept apart here.

T1: cynoCD40(1-193) (cynomolgus monkey, UniProt P25942 21-193 (human entry))
T1 construct: Soluble form used in Octet; also called cynomolgus monkey CD40
T1 chain: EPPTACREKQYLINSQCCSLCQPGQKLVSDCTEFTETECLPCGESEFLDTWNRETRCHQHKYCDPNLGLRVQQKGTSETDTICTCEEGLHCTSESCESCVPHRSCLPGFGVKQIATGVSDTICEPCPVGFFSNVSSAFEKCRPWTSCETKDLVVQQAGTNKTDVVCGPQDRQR

T2: cynoMSLN(296-598) (cynomolgus monkey)
T2 chain: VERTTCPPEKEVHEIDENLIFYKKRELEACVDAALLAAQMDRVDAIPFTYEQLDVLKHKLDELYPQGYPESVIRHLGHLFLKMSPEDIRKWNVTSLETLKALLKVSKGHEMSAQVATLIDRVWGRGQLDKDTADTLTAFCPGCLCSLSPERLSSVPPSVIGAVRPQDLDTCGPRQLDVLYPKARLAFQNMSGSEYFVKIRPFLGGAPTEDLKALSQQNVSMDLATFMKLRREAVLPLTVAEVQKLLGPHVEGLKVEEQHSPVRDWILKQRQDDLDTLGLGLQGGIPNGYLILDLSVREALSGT

T3: cynoCD40(1-193) (cynomolgus monkey, UniProt P25942 21-193 (human entry))
T3 construct: also called soluble cynomolgus monkey CD40
T3 chain: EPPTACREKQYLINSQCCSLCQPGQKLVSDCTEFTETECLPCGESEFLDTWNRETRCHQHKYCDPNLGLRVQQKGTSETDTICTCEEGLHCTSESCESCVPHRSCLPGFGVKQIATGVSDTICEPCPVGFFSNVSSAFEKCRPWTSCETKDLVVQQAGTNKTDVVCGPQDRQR

T4: soluble recombinant cynomolgus monkey mesothelin (cynomolgus monkey)
T4 chain: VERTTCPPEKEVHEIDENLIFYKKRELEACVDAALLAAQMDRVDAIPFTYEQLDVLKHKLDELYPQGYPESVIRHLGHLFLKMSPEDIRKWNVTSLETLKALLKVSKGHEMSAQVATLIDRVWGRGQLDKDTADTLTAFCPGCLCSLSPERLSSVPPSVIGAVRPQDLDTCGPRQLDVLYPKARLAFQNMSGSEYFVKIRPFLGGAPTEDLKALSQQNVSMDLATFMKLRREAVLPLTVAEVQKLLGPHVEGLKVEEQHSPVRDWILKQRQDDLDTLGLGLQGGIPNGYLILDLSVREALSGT


Tests used:
huMSLN(296-598) [1] = target: huMSLN(296-598) (human, UniProt Q13421 296-598); test: Octet, soluble antigen
Target sequence in this assay (Q13421 other isoform, or with tags, fused parts or gaps): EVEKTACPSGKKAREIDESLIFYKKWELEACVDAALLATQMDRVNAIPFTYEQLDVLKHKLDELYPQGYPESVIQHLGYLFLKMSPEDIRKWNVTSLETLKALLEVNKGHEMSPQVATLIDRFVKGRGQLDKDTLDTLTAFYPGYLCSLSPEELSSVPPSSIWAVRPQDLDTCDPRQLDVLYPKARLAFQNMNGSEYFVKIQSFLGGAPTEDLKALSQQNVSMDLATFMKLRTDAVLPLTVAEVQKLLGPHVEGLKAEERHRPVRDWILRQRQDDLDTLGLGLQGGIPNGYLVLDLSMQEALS

huCD40(1-193) [2] = target: T5, huCD40(1-193) (human, UniProt P25942 21-193); test: Octet, soluble antigen
T5 construct: Soluble form used in Octet; also called human CD40; soluble human CD40

cynoCD40(1-193) [3] = target: T1, cynoCD40(1-193); test: Octet, soluble antigen
[4] = target: human CD40 on purified human B cells (human, UniProt P25942 21-277); test: cell-based or functional assay
human CD40 [5] = target: T6, human CD40 (human, UniProt P25942 21-277); test: cell-based or functional assay
huCD40(1-193) [6] = target: T7, huCD40(1-193) (human, UniProt P25942 21-193); test: Octet
T7 construct: also called soluble human CD40
Description: (§1) A panel of mesothelin×CD40 bispecific antibodies were generated in the IgG-scFv format (Table 13) and evaluated for binding to soluble forms of human and cynomolgus monkey CD40 and human and cynomolgus monkey mesothelin using the Octet assay (Table 14). Association rate (Kon), disassociation rate (Kdis), and equilibrium binding constant (KD) were calculated. […] These bispecific antibodies were next evaluated for their ability to induce mesothelin-dependent activation of human B cells. CHO cells expressing human mesothelin were seeded into a 96 well plate. The next day varying concentrations of the mesothelin×CD40 IgG-scFv antibodies were added to the wells along with purified human B cells and the plates were incubated for an additional 48 hours. Upregulation of CD86, a marker of CD40-mediated B cell activation, was quantified on B cells by flow cytometry.

cynoMSLN(296-598) = target: T2, cynoMSLN(296-598); test: Octet
Description: as §1

huMSLN(296-598) [7] = target: T8, huMSLN(296-598) (human, UniProt Q13421 296-598); test: Octet
T8 construct: also called soluble human mesothelin
Description: as §1
T8 sequence (Q13421 other isoform, or with tags, fused parts or gaps): as above

cynoCD40(1-193) [8] = target: T3, cynoCD40(1-193); test: Octet
Description: as §1

human CD40 [9] = target: T6, human CD40; test: cell-based or functional assay; remark: listed apart in the source
[10] = target: T4, soluble recombinant cynomolgus monkey …; test: Octet, soluble recombinant cyno MSLN

Kd (huMSLN(296-598) [1]) [nM]	koff (huMSLN(296-598) [1]) [s⁻¹]	kon (huMSLN(296-598) [1]) [M⁻¹ s⁻¹]	Kd (huCD40(1-193) [2]) [nM]	koff (huCD40(1-193) [2]) [s⁻¹]	kon (huCD40(1-193) [2]) [M⁻¹ s⁻¹]	Kd (cynoCD40(1-193) [3]) [nM]	koff (cynoCD40(1-193) [3]) [s⁻¹]	kon (cynoCD40(1-193) [3]) [M⁻¹ s⁻¹]	EC50 (nM), CD86 upregulation on human B cells in the presence of CHO cells expressing human mesothelin [4] [nM]	Binder	also measured
0.3	0.000258	774000	1.6	0.000395	245000	1.3	0.000208	163000	0.005	Anti-CD40xMSLN IgG-Fab molecule 5970-1 (bispecific antibody) chain 1: QVQLVESGGGLVKPGGSLRLSCAASGFTFSDYYMSWIRQAPGKGLEWISYISSSESIIYYVDSVKGRFTISRDNAKNSLYLQMNSLRAEDTAVYYCARDVGSHFDYWGQGTLVTVSS chain 2: DIQMTQSPSSVSASVGDRVTITCRASQDISRWLAWYQQKPGKAPKLLISAASRLQSGVPSRFSGSGSGTDFTLTISSLQPEDFAIYYCQQAKSFPRTFGQGTKVEIKR chain 3: QVQLVESGGGVVQPGRSLRLSCAASGFTFSSHGMHWVRQPPGKGLEWVAVIWYDGSNEYYGDSVKGRFTISRDNSKNTLYLQMNSLRVEDTAVYYCTRGGGHWNYEGHYYGMDVWGQGTTVTVSS chain 4: QAVPTQPSSLSASPGASASLTCTLRSGINVGSSRIYWYQQKPGSPPQFLLRYTSDSDKLQGSGVPSRFSGSKDASANAGLLLISGLQSEDEADYYCMIWHSSAVVFGGGTKLTVLG	–
0.5	0.000223	451000	0.6	0.000325	541000	0.6	0.000404	669000	0.006	Anti-CD40xMSLN IgG-Fab molecule 5973-1 (bispecific antibody) chain 1: QVQLVESGGGLVKPGGSLRLSCAASGFTFSDYYMSWIRQAPGKGLEWISYISSSESIIYYVDSVKGRFTISRDNAKNSLYLQMNSLRAEDTAVYYCARDVGSHFDYWGQGTLVTVSS chain 2: DIQMTQSPSSVSASVGDRVTITCRASQDISRWLAWYQQKPGKAPKLLISAASRLQSGVPSRFSGSGSGTDFTLTISSLQPEDFAIYYCQQAKSFPRTFGQGTKVEIKR chain 3: QVQLVESGGGLVKPGGSLRLSCAASEFTFSDYYMSWIRQAPGKGLEWVSYISRSGDTIYYADSVKGRFTISRDNAKNSLYLQMNGLRAEDTAVYYCARDLAAGATGGLDCWGQGTLVTVSS chain 4: SYELTQPPSVSVSPGQTASITCSGERLGNKYICWYQQKPGQSPVLVIYQDFKRPSGIPERFSGSNSGITATLTISGTQAMDEADYYCQAWDSRTVVFGGGTKLTVLG	–
1	0.000439	424000	0.7	0.000423	600000	0.7	0.000526	752000	0.003	Anti-CD40xMSLN IgG-Fab molecule 5987-1 (bispecific antibody) chain 1: QVQLVQSGAEVTKPGASVKVSCKASGYTFAGYYMHWVRQAPGQGLEWMGWINPHSGGTNYAQKFQDRVTMTRDTSINTAYMELSRLRSDDTAVYYCARERISMVRGVGHNWFAPWGQGTLVTVSS chain 2: DIQMTQSPSSLSASVGDRVTITCRASQDISNNLAWFQQKPGKPPKSLMYAASSLHSGVPSTFSGSGSGTDFTFTISSLQPEDFATYYCQQYNSYPLTFGGGTKVEIRR chain 3: QVQLVESGGGLVKPGGSLRLSCAASGFTFSDYYMSWIRQAPGKGLEWISYISSSESIIYYVDSVKGRFTISRDNAKNSLYLQMNSLRAEDTAVYYCARDVGSHFDYWGQGTLVTVSS chain 4: DIQMTQSPSSVSASVGDRVTITCRASQDISRWLAWYQQKPGKAPKLLISAASRLQSGVPSRFSGSGSGTDFTLTISSLQPEDFAIYYCQQAKSFPRTFGQGTKVEIKR	–
0.5	0.00027	568000	4	0.000531	134000	1.7	0.000137	80600	0.007	Anti-CD40xMSLN IgG-Fab molecule 5972-1 (bispecific antibody) chain 1: QVQLVESGGGLVKPGGSLRLSCAASGFTFSDYYMSWIRQAPGKGLEWISYISSSESIIYYVDSVKGRFTISRDNAKNSLYLQMNSLRAEDTAVYYCARDVGSHFDYWGQGTLVTVSS chain 2: DIQMTQSPSSVSASVGDRVTITCRASQDISRWLAWYQQKPGKAPKLLISAASRLQSGVPSRFSGSGSGTDFTLTISSLQPEDFAIYYCQQAKSFPRTFGQGTKVEIKR chain 3: QVQLQQSGPGLVKPSQTLSLTCAISGDSVSSSRTAWNWIRQSPSRGLEWLGRTYYRSKWYHDYSVSVKSRITIDPDTSKNQFSLQLNSVTPEDTAVYYCARGAAPFDYWGQGTLVTVSS chain 4: EIVLTQSPGTLSLSPGERATLSCRASQSVSSNYLAWYQQKPGQAPRALIYAASNRAAGISDRFSGSGSGTDFTLTISRLEPEDFAVYFCQQYGSSPLTFGGGTKVEIKR	–
–	–	–	–	–	–	–	–	–	–	6052-2 (bispecific antibody, IgG-scFv: IgG (CD40) 36F3, scFv (MSLN) 6F4; also called 6052-3) heavy: not shown light: EIVLTQSPGTLSLSPGERATLSCRASQSVSSNYLAWYQQKPGQAPRALIYAASNRAAGISDRFSGSGSGTDFTLTISRLEPEDFAVYFCQQYGSSPLTFGGGTKVEIKRTVAAPSVFIFPPSDEQLKSGTASVVCLLNNFYPREAKVQWKVDNALQSGNSQESVTEQDSKDSTYSLSSTLTLSKADYEKHKVYACEVTHQGLSSPVTKSFNRGEC	EC50 (nM), CD86 upregulation on human B cells with huMSLN-CHO cells (human CD40 [5]): 0.00445 nM; Kd (huCD40(1-193) [6]): 2.5 nM; koff (huCD40(1-193) [6]): 0.000556 s⁻¹; kon (huCD40(1-193) [6]): 218000 M⁻¹ s⁻¹; Kd (cynoMSLN(296-598)): 19 nM; koff (cynoMSLN(296-598)): 0.00519 s⁻¹; kon (cynoMSLN(296-598)): 269000 M⁻¹ s⁻¹; Kd (huMSLN(296-598) [7]): 0.7 nM; koff (huMSLN(296-598) [7]): 0.000533 s⁻¹; kon (huMSLN(296-598) [7]): 713000 M⁻¹ s⁻¹; Kd (cynoCD40(1-193) [8]): 3.3 nM; koff (cynoCD40(1-193) [8]): 0.00035 s⁻¹; kon (cynoCD40(1-193) [8]): 105000 M⁻¹ s⁻¹; EC50 (nM), CD86 upregulation on human B cells with huMSLN-CHO cells (human CD40 [9]): 0.00316 nM
–	–	–	–	–	–	–	–	–	–	anti-mesothelin antibody 7G11 (antibody, V domains shown) VH: EVQLVESGGGLIQPGGSLRLSCAVSGFTVSSKFMTWVRQAPGKGLEWVSVIYSGGKTYYADSVKGRFTISRDNSKNTLYLQMNSLRAEDTAVYYCARDSGGWGYFDYWGQGTLVTVSS VL: not shown	Kd [10]: 6.4 nM; koff [10]: 0.00188 s⁻¹; kon [10]: 294000 M⁻¹ s⁻¹
